Literature values in publication PMC4980809.

Molecular target: titin ZR7 (Homo sapiens) (UniProt Q8WZ42)
Sequence (Q8WZ42 692-740): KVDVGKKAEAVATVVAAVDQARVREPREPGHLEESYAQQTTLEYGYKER

Sequence of alpha-actinin-2 EF3/4 domain (P35609 823-894): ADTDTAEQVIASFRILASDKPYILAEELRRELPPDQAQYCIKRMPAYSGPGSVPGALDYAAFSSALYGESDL

For “alpha-actinin-2 EF3/4 domain (from UniProt P35609)”, the Kd is given as 380 nM.
